Reference: the supplement of paper PMC7877785
± gives the uncertainty stated by the source.

Test: self-splicing fitness, log relative to wild type (ln ratio); higher = more splicing; Tetrahymena group I intron in knt gene, E. coli kanamycin selection, DiMSum; sequences stand for … in CUCUCU…GGAGGGAAAAGUUAUCAGGCAUGCACCUGGUAGCUAGUCUUUAAACCAAUAGAUUGCAUCGGUUUAAAAGGCAAGACCGUCAAAUUGCGGGAAAGGGGUCAACAGCCGUUCAGUACCAAGUCUCAGGGGAAACUUUGAGAUGGCCUUGCAAAGGGUAUGGUAAUAAGCUGACGGACAUGGUCCUAACCACGCAGCCAAGUCCUAAGUCAACAGAUCUUCUGUUGAUAUGGAUGCAGUUCACAGACUAAAUGUCGGUCGGGGAAGAUGUAUUCUUCUCAUAAGAUAUAGUCGGACCUCUCCUUAAUGGGAGCUAGCGGAUGAAGUGAUGCAACACUGGAGCCGCUGGGAACUAAUUUGUAUGCGAAAGUAUAUUGAUUAGUUUUGGAGUACUCGUGGUCG
Method in brief: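 A randomised library covering all eight P1ex-region intron nucleotides was built with the intron in the knt kanamycin-resistance gene on pET-22b(+) and held in E. coli BL21(DE3). Cells were grown overnight at 37°C or 30°C on LB agar, with or without 25 μg/mL kanamycin, plus 100 μg/mL carbenicillin, 50 μM IPTG and 0.2% rhamnose, and pooled colonies were amplicon-sequenced on an Illumina HiSeq 2500. DiMSum fitness is the error-weighted combination of wild-type-normalised replicate fold changes, kanamycin versus none.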

Sequence	self-splicing fitness (ln) (30 °C)	self-splicing fitness (ln) (37 °C)
GUACAGCAAUAUUACGGACU	-1.74 ± 0.062	-0.781 ± 0.081
GGUGAGCAAUAUUACGCUUA	-3.17 ± 0.35	-1.92 ± 0.33
UCGGAGCAAUAUUACGUUCA		-2.2 ± 0.47
UCUAAGCAAUAUUACGGCAC	-3.19 ± 0.44	-2.85 ± 0.32
AGGCAGCAAUAUUACGGGGG	-3.34 ± 0.21	-2.98 ± 0.23
UAAAAGCAAUAUUACGUCUU	-0.765 ± 0.058	-0.487 ± 0.076
UAAAAGCAAUAUUACGUAAA	-1.34 ± 0.077	-1.1 ± 0.09
AGCCAGCAAUAUUACGGAUU	-2.85 ± 0.1	-0.534 ± 0.093
CUAAAGCAAUAUUACGGGGG	-1.87 ± 0.13	-1.15 ± 0.13
CUCCAGCAAUAUUACGGCUG	-2.12 ± 0.22	-2.99 ± 0.4
UUAUAGCAAUAUUACGUCGG	-1.58 ± 0.27	-0.309 ± 0.24
AAGUAGCAAUAUUACGGCCU	-0.0359 ± 0.073	-0.35 ± 0.091
UCACAGCAAUAUUACGAAGG	-1.55 ± 0.097	-0.755 ± 0.12
CAUGAGCAAUAUUACGGGAU	-3.49 ± 0.3	
CUUAAGCAAUAUUACGUGUG	-1.18 ± 0.061	-0.604 ± 0.074
CCGGAGCAAUAUUACGGACG	-2.82 ± 0.19	-1.31 ± 0.25
CCACAGCAAUAUUACGGUCC	-2.75 ± 0.32	-2.32 ± 0.32
UCCCAGCAAUAUUACGAAAC	-3.52 ± 0.44	-1.93 ± 0.46
AGCUAGCAAUAUUACGGUAC	-2.2 ± 0.26	-1.1 ± 0.24
CUACAGCAAUAUUACGUCUA	-3.21 ± 0.24	-3.04 ± 0.33
AAACAGCAAUAUUACGAUAA	-1.6 ± 0.085	-0.365 ± 0.092
GUGUAGCAAUAUUACGUUUG	-2.54 ± 0.27	-1.44 ± 0.28
GUGCAGCAAUAUUACGGCCA	-0.211 ± 0.11	-0.818 ± 0.14
CGUGAGCAAUAUUACGAUAA	-4.37 ± 0.39	-2.68 ± 0.23
AGGGAGCAAUAUUACGGUCA	-2.38 ± 0.18	-2.08 ± 0.21
GCUUAGCAAUAUUACGCCUU	-2.7 ± 0.21	0.179 ± 0.19

Sequence	self-splicing fitness (ln) (30 °C)	self-splicing fitness (ln) (37 °C)
AUUUAGCAAUAUUACGUUCA	-0.355 ± 0.17	-0.395 ± 0.18
UGUCAGCAAUAUUACGCACU	-1.07 ± 0.087	-0.0217 ± 0.12
GUGCAGCAAUAUUACGGGAG	-2.01 ± 0.12	-1.44 ± 0.13
UGACAGCAAUAUUACGCGUG	-0.925 ± 0.066	0.0478 ± 0.08
ACAGAGCAAUAUUACGGUAU	-4.21 ± 0.36	-3.75 ± 0.26
GCGCAGCAAUAUUACGUGGU	-2.14 ± 0.081	-1.02 ± 0.086
AAACAGCAAUAUUACGUUCU	-0.831 ± 0.061	-0.0204 ± 0.077
GCCGAGCAAUAUUACGUCUG	-3.36 ± 0.32	-2 ± 0.27
UACCAGCAAUAUUACGCAUU	-2.42 ± 0.092	-0.373 ± 0.078
GACAAGCAAUAUUACGUGAC	-1.47 ± 0.096	-1.42 ± 0.12
UUCCAGCAAUAUUACGUUAG	-2.57 ± 0.17	-0.904 ± 0.16
UAGCAGCAAUAUUACGAUAA	-1.07 ± 0.12	0.133 ± 0.13
AUAUAGCAAUAUUACGCGUC	-3.3 ± 0.26	-2.26 ± 0.28
ACUGAGCAAUAUUACGCUCA	-3.23 ± 0.24	-1.87 ± 0.18
AGAGAGCAAUAUUACGGGAG	-2.6 ± 0.4	
AUGGAGCAAUAUUACGCCAC	-2.95 ± 0.41	
GAAUAGCAAUAUUACGUUGA	-2.6 ± 0.13	-0.487 ± 0.09
AGGCAGCAAUAUUACGUAAU	-1.94 ± 0.088	-0.867 ± 0.088
CUGUAGCAAUAUUACGGCCG	-0.368 ± 0.13	0.257 ± 0.16
GGAAAGCAAUAUUACGGCAA	-0.443 ± 0.12	-0.141 ± 0.11
GGAUAGCAAUAUUACGAGGC	-3.93 ± 0.31	-2.43 ± 0.37
CAUAAGCAAUAUUACGAGCU	-4 ± 0.34	-2.76 ± 0.3
UGGAAGCAAUAUUACGCAGU	-2.85 ± 0.4	-1.6 ± 0.18
UAAGAGCAAUAUUACGCCGA	-2.94 ± 0.47	
UCACAGCAAUAUUACGAUCU	-2.71 ± 0.1	-1.78 ± 0.11
GUGAAGCAAUAUUACGAUGG	-2.31 ± 0.11	0.388 ± 0.13

Sequence	self-splicing fitness (ln) (30 °C)	self-splicing fitness (ln) (37 °C)
CACGAGCAAUAUUACGUCCC	-1.45 ± 0.25	
AGCGAGCAAUAUUACGAUCA	-1.94 ± 0.26	-2.08 ± 0.37
UUAGAGCAAUAUUACGUAAA	-2.69 ± 0.17	0.396 ± 0.13
UGAGAGCAAUAUUACGUCUC	-1.78 ± 0.38	
GUGCAGCAAUAUUACGUGAU	-1.98 ± 0.078	-0.862 ± 0.086
UGUGAGCAAUAUUACGACUG	-1.04 ± 0.18	-0.343 ± 0.29
CAAUAGCAAUAUUACGGUGU	-3.14 ± 0.16	-2.27 ± 0.18
AUGGAGCAAUAUUACGUCAU		-1.33 ± 0.27
UCAGAGCAAUAUUACGGCUC	-4.58 ± 0.34	-3.36 ± 0.25
AACGAGCAAUAUUACGCGUG	-1.89 ± 0.094	-1.12 ± 0.099
CACUAGCAAUAUUACGAUUC	-3.02 ± 0.23	-1.14 ± 0.26
GCACAGCAAUAUUACGAUCG	-1.08 ± 0.05	-0.27 ± 0.069
AUUCAGCAAUAUUACGUCAG	-2.51 ± 0.15	-1.67 ± 0.22
CAACAGCAAUAUUACGAUCG	-0.183 ± 0.052	0.463 ± 0.069
GUUAAGCAAUAUUACGAACG	-2.01 ± 0.28	-1.16 ± 0.31
CUGUAGCAAUAUUACGGUGC	-3.58 ± 0.2	-2.77 ± 0.19
GGAAAGCAAUAUUACGUAUA	-2.2 ± 0.16	-1.16 ± 0.18
CGUAAGCAAUAUUACGGUGC	-2.65 ± 0.15	-3.7 ± 0.31
GCCGAGCAAUAUUACGGGUU	-3.35 ± 0.17	-0.886 ± 0.092
AUAUAGCAAUAUUACGGCAU	-0.195 ± 0.089	0.155 ± 0.12
GCGAAGCAAUAUUACGUUAG	-2.77 ± 0.12	-2.35 ± 0.15
CCCAAGCAAUAUUACGGUCA	-2.13 ± 0.12	-2.22 ± 0.14
CAGAAGCAAUAUUACGUUCC		-1.75 ± 0.47
UUUGAGCAAUAUUACGCGUU	-2.4 ± 0.18	-2.86 ± 0.42
ACCAAGCAAUAUUACGCAUG	-3.75 ± 0.11	-2.2 ± 0.11
CACCAGCAAUAUUACGGUUG	-2.85 ± 0.094	-1.04 ± 0.11
